Results published in patent US20220332795A1.

Molecular target: human serum albumin (human) (UniProt P02768)
Test: solution ELISA screen (luminescence)

Sequence of human serum albumin (human) (P02768 25-609 limits assumed): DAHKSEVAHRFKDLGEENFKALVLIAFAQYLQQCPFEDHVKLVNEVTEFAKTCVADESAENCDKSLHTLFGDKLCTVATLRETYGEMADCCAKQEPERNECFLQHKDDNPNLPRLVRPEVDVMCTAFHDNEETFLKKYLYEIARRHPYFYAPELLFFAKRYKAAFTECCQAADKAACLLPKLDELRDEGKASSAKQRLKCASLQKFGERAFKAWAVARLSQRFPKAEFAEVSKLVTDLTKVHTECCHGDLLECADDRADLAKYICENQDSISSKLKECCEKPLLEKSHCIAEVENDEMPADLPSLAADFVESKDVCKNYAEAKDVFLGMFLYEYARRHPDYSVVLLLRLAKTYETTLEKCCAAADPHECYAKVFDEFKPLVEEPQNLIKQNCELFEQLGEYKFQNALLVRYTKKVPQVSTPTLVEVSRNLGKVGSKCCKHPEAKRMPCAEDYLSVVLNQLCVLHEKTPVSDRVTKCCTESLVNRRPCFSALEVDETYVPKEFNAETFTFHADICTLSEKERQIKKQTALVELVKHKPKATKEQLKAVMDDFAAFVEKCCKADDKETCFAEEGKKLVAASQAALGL

B1: SEQ ID NO 227 (designed binder, not shown: small tags and cut ends)
chain: MLPAPKNLVVSRVTEDSARLSWTAPDAAFDSFYIAYAEPRPDGEAIGLRVPGSERSYDLTGLKPGTEYSVLIHGVKGGLLSSPLSAIFTT
- RLU: 28200 RLU

B2: SEQ ID NO 228 (designed binder, not shown: small tags and cut ends)
chain: MLPAPKNLVVSRVTEDSARLSWTAPDAAFDSFYIAYAEPRPDGEAIVLRVPGSERSYDLTGLKPGTEYSVLIHGVKGGLLSSPLAASFTT
- RLU: 29600 RLU

B3: SEQ ID NO 229 (designed binder, not shown: small tags and cut ends)
chain: MLPAPKNLVVSRVTEDSARLSWTAPDAAFDSFYIAYAEPRPDGEAIQLLVPGSERSYDLTGLKPGTEYSVLIHGVKGGLLSSPLVAHFTT
- RLU: 15400 RLU

B4: SEQ ID NO 230 (designed binder, not shown: small tags and cut ends)
chain: MLPAPKNLVVSRVTEDSARLSWTAPDAAFDSFYIAYAEPRPDGEAIWLLVPGSERSYDLTGLKPGTEYSVLIHGVKGGLLSSPLVAFFTT
- RLU: 32000 RLU

B5: SEQ ID NO 231 (designed binder, not shown: small tags and cut ends)
chain: MLPAPKNLVVSRVTEDSARLSWTAPDAAFDSFFIGYLEPQPPGEAIHLYVPGSERSYDLTGLKPGTEYNVTIQGVKGGFPSDPLDAVFTT
- RLU: 20600 RLU

B6: SEQ ID NO 232 (designed binder, not shown: small tags and cut ends)
chain: MLPAPKNLVVSRVTEDSARLSWTAPDAAFDSFFIGYLEPQPPGEAIYLDVPGSERSYDLTGLKPGTEYNVTIQGVKGGFPSTFTT
- RLU: 75400 RLU

B7: SEQ ID NO 233 (designed binder, not shown: small tags and cut ends)
chain: MLPAPKNLVVSRVTEDSARLSWTAPDAAFDSFYIAYAEPRPDGEAIQLFVPGSERSYDLTGLKPGTEYSVLIHGVKGGLLSSPLKAYFTT
- RLU: 22000 RLU

B8: SEQ ID NO 234 (designed binder, not shown: small tags and cut ends)
chain: MLPAPKNLVVSRVTEDSARLSWTAPDAAFDSFYIAYAEPRPDGEAIVLVVPGSERSYDLTGLKPGTEYSVLIHGVKGGLLSSPLSAIFTT
- RLU: 20800 RLU

B9: SEQ ID NO 235 (designed binder, not shown: small tags and cut ends)
chain: MLPAPKNLVVSRVTEDSARLSWTAPDAAFDSFFIGYLEPQPPGEAIQLTVPGSERSYDLTGLKPGTEYNVTIQGVKGGFPSLPLSADFTT
- RLU: 23800 RLU

B10: SEQ ID NO 236 (designed binder, not shown: small tags and cut ends)
chain: MLPAPKNLVVSRVTEDSARLSWTAPDAAFDSFYIAYAEPRPDGEAILLQVPGSERSYDLTGLKPGTEYSVLIHGVKGGLLSSPLDAEFTT
- RLU: 15600 RLU

B11: SEQ ID NO 237 (designed binder, not shown: small tags and cut ends)
chain: MLPAPKNLVVSRVTEDSARLSWTAPDAAFDSFYIAYAEPRPDGEAIVLAVPGSERSYDLTGLKPGTEYSVLIHGVKGGLLSSPLYASFTT
- RLU: 27700 RLU

B12: SEQ ID NO 238 (designed binder, not shown: small tags and cut ends)
chain: MLPAPKNLVVSRVTEDSARLSWTTPDAAFDSFYIAYAEPRPDGEAIRLQVPGSERSYDLTGLKPGTEYSVLIHGVKGGLLSSPLGFTT
- RLU: 99000 RLU

B13: SEQ ID NO 239 (designed binder, not shown: small tags and cut ends)
chain: MLPAPKNLVVSRVTEDSARLSWTAPDAAFDSFYIAYAEPRPDGEAIQLVVPGSERSYDLTGLKPGTEYSVLIHGVKGGLLSSPLYAIFTT
- RLU: 21100 RLU

B14: SEQ ID NO 240 (designed binder, not shown: small tags and cut ends)
chain: MLPAPKNLVVSRVTEDSARLSWTAPDAAFDSFYIAYAEPRPDGEAISLSVPGSERSYDLTGLKPGTEYSVLIHGVKGGLLSSPLHAKFTT
- RLU: 18000 RLU
